Assay results taken from patent US6673915.

Target: CC CKR2B stably expressed on HEK-293 cells (Example 10A) (human) (UniProt P41597)
Test: cell-based or functional assay

CC CKR2B stably expressed on HEK-293 cells (Example 10A) (human), sequence (P41597 whole entry): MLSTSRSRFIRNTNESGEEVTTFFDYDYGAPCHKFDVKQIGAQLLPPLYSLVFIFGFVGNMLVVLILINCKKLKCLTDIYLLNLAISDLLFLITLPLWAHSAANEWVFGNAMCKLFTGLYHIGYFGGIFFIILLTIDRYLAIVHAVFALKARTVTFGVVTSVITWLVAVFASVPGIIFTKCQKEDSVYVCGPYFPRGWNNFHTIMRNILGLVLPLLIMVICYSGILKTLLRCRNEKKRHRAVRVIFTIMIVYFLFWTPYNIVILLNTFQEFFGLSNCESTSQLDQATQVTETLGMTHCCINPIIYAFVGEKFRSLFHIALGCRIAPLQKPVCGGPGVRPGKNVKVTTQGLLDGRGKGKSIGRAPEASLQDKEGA

half-maximal effective concentration of calcium flux: 15 nM
saturation of calcium flux response: 100 nM
Substance: recombinant human MCP-4 with the mature N-terminal Gln (PeproTech), Q99616 24-98 (ligand)
